Measurements: publication PMC9054013, “FCHO controls AP2’s initiating role in endocytosis through a PtdIns(4,5)P2-dependent switch” (Science Advances, 2022)

What was measured:
[1] = biological target: T1, Cμ2 (μ2 residues 160 to 435) (UniProt P84092 160-435); experiment: ITC; Cμ2 with FCHO2 constructs or peptides; 100 mM tris pH 7.4, 150 mM NaCl, 0.25 mM TCEP; 12°C; Nano ITC; settings: both partners purified
T1 construct: AP2 μ2 subunit, C-terminal subdomain, residues 160 to 435; in the chimera crystals Cμ2 carries an N-terminal His6 tag or a thrombin-cleaved GST tag; also called His6μ2 (residues 160 to 435) wt; isolated Cμ2; source: E. coli BL21 plyS, purified (Ni-NTA, Superdex 200)
T1 sequence (looked up): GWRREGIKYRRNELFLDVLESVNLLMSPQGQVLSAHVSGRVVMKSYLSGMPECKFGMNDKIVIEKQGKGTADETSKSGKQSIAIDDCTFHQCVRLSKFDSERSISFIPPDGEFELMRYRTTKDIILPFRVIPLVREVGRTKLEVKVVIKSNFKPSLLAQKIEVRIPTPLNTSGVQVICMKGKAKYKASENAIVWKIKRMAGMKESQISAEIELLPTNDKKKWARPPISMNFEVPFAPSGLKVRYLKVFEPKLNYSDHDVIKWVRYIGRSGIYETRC

[2] = biological target: T2, AP2 α-appendage (residues 695 to 938) (UniProt P17427 695-938); experiment: ITC; α-appendage or β2-appendage with C block peptides; 100 mM tris pH 7.4, 150 mM NaCl, 0.25 mM TCEP; 12°C; peptides 1 to 5 mM titrated; settings: both partners purified
T2 construct: AP2 α subunit (α2), appendage, residues 695 to 938; also called α2 ear; pGEX4T2α-appendage; source: E. coli BL21 plyS, purified (GST beads, thrombin, Superdex 200)
T2 sequence (P17427 695-938): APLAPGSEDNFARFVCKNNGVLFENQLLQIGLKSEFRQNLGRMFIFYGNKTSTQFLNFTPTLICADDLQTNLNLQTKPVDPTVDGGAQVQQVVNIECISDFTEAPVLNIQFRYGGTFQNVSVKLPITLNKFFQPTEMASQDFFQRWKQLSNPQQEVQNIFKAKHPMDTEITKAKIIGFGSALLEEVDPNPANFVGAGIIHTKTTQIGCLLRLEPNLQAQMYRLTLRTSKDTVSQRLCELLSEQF

B1: FCHO2-N1+N2 EEK mutant (domain or fragment)
chain: NIPDVDAAGYSIAPETNQNDTKENHFYSSSDSDSEDEEPKKYRIEIKPMHPNNSHHTMASLDELKVSIGNITLSPAISRHS
fold reduction of binding against FCHO2-N1+N2 wild type [1]: 5 fold

QSEEQVSKNLFGPPAAAAFDHED (peptide, UniProt O14526 426-448, looked up) [FCHO1 C peptide, LES to AAA]
Kd [2]: > 500 µM
